# Measured values taken from the nanobody polyreactivity screen of Harvey et al. (2022).
# Test: yeast display, Sf9 membrane polyspecificity reagent, FACS + sequencing; frameworks hold sequencing errors
# Method in brief: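 Using colony PCR, genes from sorted yeast display clones were amplified, then sequenced on MiSeq at 2 × 250 and filtered by CDR length. The clones had been stained with 10% biotinylated, detergent-solubilized Sf9 membrane reagent for 1 hour at 4 °C and sorted by FACS into low and high (top ~1%) gates on anti-HA and streptavidin fluorescence. Polyreactivity labels come from the gate of origin.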
row,Sequence,polyreactivity (PSR sort gate)
1,QVQLVESGGGLVQAGGSLRLSCAASGRILYGYAMGWYRQAPGKERELVASITWSGGSTYADSVKGRFTISRDNAKNTVYLQMNSLKPEDTAVYYCATRRGPKWQWLTYGYWGQGTQVTVSS,low polyreactivity
2,QLQLVESVRGLVQAGGSLRLSCAASGGIFDTYAKGWYRQAPCKERELVASISRSGSTNYADSVKGRFTISRDNAKNTVYLQMNSLKPEDSAVYYCAADVFYSIYDYWGQGTQVTVSS,low polyreactivity
3,QVQLVESGGGLVQAGGSLRLSCAASGRTFRKYTMGWYRQAPGKERELVAASASRGGSTYYADSVKGRFTISRDNAKNTVYLQMNSLKPEDTAVYYCATDYITPSSDGDYWGQGTQVTVSS,high polyreactivity
4,QVQLVESGGGLVQAGGSLRLSCAASGSTFVYNDMGWNRQAPGKEREFVAAITYSGSTYYADSVKGRFTISRDNAKNTVYLQMNSLKPEDTAVYYCAAEYVWRFEYWGQGTQVTVSS,low polyreactivity
5,QVQLVESGGGLVHAGGSLSLSCAASGSTLRAYTMGWYRQSPGKERELVATITRRGGTTYYADSVKGRFTISRDNAKNTVYLQMNSLKPEDTAVYYCAAKWYSTHRYDYWGQGTQVTVSS,high polyreactivity
6,QVQLVESGGGLVQAGGSLRLSCAASGFTFVYSVMGWYRQAPGKERELVAAINAGGGSTYYADSVKGRFTISRDNAKNTVYLQMNSLKPEDTAVYYCNARVRVRLGRNWSSYYYWGQGTQVTVSS,high polyreactivity
7,QVQLVESGGGLVQAGGSLRLSCAASGSTLSQNAMGWSRQAPGKEREFVADISGSGDSTYYADSVKGRITISRDNAKNTVYLQMNSLKPEDTAVYYCAAEELSHYEYWGKGTQVTVSS,low polyreactivity
8,QVQLVESGGCLVQAGGSLRLSSAASGSTFRVNAMGWYRQAPGKERELVAAISFSGGSTYYADSVKGRFTISRDNAKNTVYLQMNSLKPEDTAVYYCNVDIYLGGDYYYSRYTWGLDYWGQGTQVTVSS,low polyreactivity
9,QVQLVESGGGLVQAGGSLRLSCAASGFTFHWNAMGWYRPAPGKERELVAVITSGGSTNYADSVKGRFTISRDNAKNTVYLQMNSLKPEDTAVYYCAKEDGYSQLKTTFDEPGYGSWGQGTQVTVSS,low polyreactivity
10,QVQLVESGGGLVQAGGSLRLSCAASGRTFYIYAMGWYRQAPGKERELVAAITSGTSSTYYADSVKGRFTISRDNAKNTVYLQMNSLKPEDTAVYYCAASSTGYGGSTYYYWGQGTQVTVSS,low polyreactivity
11,QVQLVESGGGLVQAGGSLRLSCAASGRTFGAYAMGLYRQEPGKETELVAAISKSGGRTYYADSVKGRFTISRDYAKNTVYLLMNSLKPEDTAVYYCNARGFRGEYDYWGEGTQVTVSS,high polyreactivity
12,QVQLVESGGGLVQAGGSLRLSCAASGFTFGWNAMGWYRQAPGKERELVAAITSGGITNYADSVKGRFTISRDNAMNTVYLQMNSLKPEDTAVYYCNARPTSRRSWYYWKGYDYWGQGTQVTVSS,high polyreactivity
13,QVQLVESGGGLVQAGGSLRLSCAASGFILGRYAMGWYRQAPGKERELVAAISIGGRTNYADSVKGRFTISRDNAKITVYFQMNSLKPEDTAVYYCATSFAVLLSQVDYWGQGTQVTVSS,low polyreactivity
14,QVQHVESGGGIVQAGGSLRLSCAASGGIFGYYAMGWYRQAPGKEREFVATITRGGGSTYYADSVKGRFTISRDNAKNTVYLQMNSLKPEDSAVYYCNAKPSYYQRYIYWGQGTQVTVSS,high polyreactivity
15,QVQLVDSGGRLVQAGGSLRLSCAASGRIFVNNAMRWYRQAPGKERELVAAITRGGSTYYADSVKGRFTLSRDNAKNTVYLQMNSLKPEDTAVYYCDSDYQRNDFRWYDYWGQGTHVTVSS,low polyreactivity
16,QVQLVESGGGLVQAGGSLRLSCAASGRTIRENVMGWYRQAPGKERELVAAITGNDGTTYYADSVKGRFTISRDNAKNTVYLQMNSLKPEDTAVYYCAARPYLGYIGYDYWGQGTQVTVSS,low polyreactivity
17,QDQLVESGGGLVQAGGSLRLSCAASGSIFKRYAMGWYRQAPGKERELVAAISYSGGSTYYADSVKGRFTISRDNAKNTVYLQMNSLKPEDTAVYYCAAATYRQQWHYYWGQGTQVTVSS,high polyreactivity
18,QVQLVESGGGLVQAGGSLRLSCAASGNTLPQNAMGWYRQAPGKERELVAAISRSGGSTYYADSVKGRFTISRDNAKNTVYLQMNSLKPEDTAVYYCAAKLTVSGYRYGYWGQGTQVTVSS,high polyreactivity
19,QVQLVESGGGLVQAGGSLRLSCAASGRIFRYYAMGWYRQAPGKERELVAAIRIRGGSTSYADSVKGRFTISRDNAKNTVYLQMNSLKPEDTAVYYCNKRDKVTYSYDYWGQGTQVTVSS,high polyreactivity
20,QVQLVESGGGLVQAGGSLRLSCAASGSIFGAYAMGWYRQAPGKERELVAAITWRGGSTYYADSVKGRFTISRDNAKNTVYLQMNSLKPEDTAVYYCAARYLRPDGDALTRYGYWGQGTQVTVSS,high polyreactivity
21,QVQLGESGGGLVQAGGSLRLSCAASGIILHGYAMGWYRPAPGKEREFVATITLSGSSTYYADSVKGRFTISRDNAKNTVYLQMNSRKAEDTAVYYSAARTWVIVYGLQYDYWGHGTQVTVSS,high polyreactivity
22,QVQLVESCGGLVQAGGSLRLSCAASGLTFIFNAMGWYRQAPGKEREFVADISSGVNTNYADSVKGRFTISRDNAKNTVYLQMNSLKPEDTAVYYCNKDVNAYGGASIRGYTMYYWGQGTQVTVSS,low polyreactivity

row,Sequence,polyreactivity (PSR sort gate)
1,QVQLEESGGGLVQAGGSLRLSCAASGSTFPGNGMGCYRPEPGKERELVAYISGGGDSTYYADSVKGRFTISRDNAKNTVYLQMNSLKPEETAVYYCAADYRQEPGYTGYYYWGHGTQVTVSS,low polyreactivity
2,QVQLVESGGGLVQAGGSLRLRCAASAGTFGIYSMGWYRQAPGKEREFVAAISGRGGTTYDADSVKGRFTISRDNAKYTVYLQMNSLKPVDTAVYYWATDSVNVGSNVGDKHDYWGQGTQVTVSS,low polyreactivity
3,QVQLVESGGGLVQAGGSLRLSCAASGSIFAAYTMGWYRQAPGKERELVAAISVSTVSTNYADSVQGRFTISRDNAKNTVFLQMNRLKPEDTAVYYCNADATDSYPEKDEHDSWGQGTEVTVSS,low polyreactivity
4,QVQLVESGGGLVQAGGSLRLSCAASGSIFFYYSMGWYRQAPGKERELVAAISLSGGRTYYADSVKGRSTISRDNAKNTVYLQMNSLKPEDTAVYYCNAASLSGRGQSYHYHGYDYWGQGTQVTVSS,high polyreactivity
5,QVQLVESGGGLVQAGGSLRLSCAASVLTFITNVMVWYRQAPGKERELVAVISSRGGTTYYADSVKGRFTISRDNAKNTVYLQMNSLKPEETAVYYCNRVRSPKYDWGQGTQVTVSS,high polyreactivity
6,QVQLVESGRGLVQAGGSLRLSCAASGFTFYIYAMGWYRQAPGKERELVAAINFGGGGTYYADSVKGRFTISRDNAKNTVYLQMNSLKPEDTAVYYCAADYWYDYYSTEYDYWGQGTQVTVSS,low polyreactivity
7,QVQLGESGGGLVQAGGSLRLSCAASGFTFHLYAMGWYRQAPGKERELVAAISQSGDSTYYADSVKGRFTISRDNAKNTVYLQMNSLKPDDTAVYYFNADNDGVVWSYPFDFDYWGQGTQVTVSS,low polyreactivity
8,QVQLVESGGGLVQAGGSLRLSCAASGSTFVGYAMGWYRQAPGKERELVADIDSIGGSTYYADSVKGRFTISRDNAKNTVYLQMNSLKPEDTAVYYCAAYQHPGLRTSYEYWGQGTQVTVSS,low polyreactivity
9,QVQLVESGGCLVQAGGSLRLSCAASGYTFSLNAMGWYRQAPGKERELVAAISYSGGSTYYADSVKGRFTISRDNAKNTVYLQMNSLKPEDTAVYYCAVRRPQYSYYWDFDYWGQGTQLTVSS,high polyreactivity
10,QVQLVESGGGLVQAGGSLRLSCAASGSIIGYYTMGWYRQAPGKEREFVAAISWSGGSTYYADSVKGRFTISRDNAKNTVYLQMNSLKPEDTAVYYCNADVYWEYDYCGQGTQVTVSS,low polyreactivity
11,QVQLVESGGGLVQAGGSLRLSCAASGSIFSGNAMGWYRQAPGKKGVGCRYYSCWFYDYADSVKGRFTISRDNAKNTVYLQMNSLKPEDTAVYYCAKSNYVRSEFNYWGQGTQVTVSS,low polyreactivity
12,QVQLVESGGGLVQAGGSLRLSCAASGNTFWFYGMGWYRQAPGKERELVAAITSGGSTDYADSVKWRFTISRDNAKNTVYLQMNSLKPEDTAVYYCAAEPVAYYGSSYGYWGQGTQVTVSS,low polyreactivity
13,QVQLVESGGGLVQAGGSLRLSCAASGRTIKVYAMGWYRQAPGKERELVAAISYSGAGTRYADSVKGRFTISRDNAKNTVYLQMNSLKPEDTAVYYCNTDAWARVKRYEYWGQGTQVTVSS,low polyreactivity
14,QVQLVESGGGLVQAGGSLRLRCAASGSIFWRNAMGWYRQAPGKERELVAPISGNGGTTYYADSVKGRFTISRENAKNTVFLQMNSLKPEHTAVYYCPKVGKTYRTYEYWGQGTEVTVSS,high polyreactivity
15,QDQLVESGGGLVQAGGSLRLSCASSGSIFSYNAMGWYRQAPGKEMELVAAISRGGSTYYADSVKGRFTISRDNAKNTVYLQMNSLKPDDTAVYYCAAYVYQLSYPAFEEGYWGQGTQVTVSS,low polyreactivity
16,QVQLVESGGGLVQAGGSLRLSCAASGSIFVFNAMGWYRQAPGKERELVAAITSGGRTYYADSVKGRFTISRDNAKNTVYLQMNSLKPEDTAVYYCAAEFWFFAGWAYEYWGQGTQVTVSS,high polyreactivity
17,QVQLVESGGGLVQAGGTLRLTCAASGFTLTRNAMGWYRQAPGKERELVAAISRSGGSTYYADSVKGRFTISRDNAKNTVYLQMNSLKPEDTAVYYCAADDKYFYPGNGYWGLGTQVTVSS,high polyreactivity
18,QVQLVESGGGLVQAGCSLRVSSAASGRIFVYYAMGRYRQAPGKERELVAAIRWTGGSTYYADSVKGRFTISRDNAKNTVYLQMNSVKPEDTAVYYCATVNRYCHFNYWGQGTQVTVSS,high polyreactivity
19,QVQLVESGGGLVQAGGSLRLSCAASGSTFVSNAMGWYRPAPGKERELVAAISSSGGRTSYADSVKGRFTISRDNAKNTVYLQMNSLKPEDTAVYYCAARFKSVDYVQYYYWGQGTQVTVSS,low polyreactivity
20,QVQLVESGGGFGQAGGSLRLSCAASGFTCGYYAMGWFRQAPGKERELVASISSRGGSTNYADSVKGRFTISRDHAKNTVYLQMNTMKPEDTAVYYCAAEYYRQRYEYDYWRQGTQVTVSS,high polyreactivity
21,QVQLVESGAGLVQAGGSLRLSCAATGLTFDYNAMGWYRKAPGKERELVAAITWSGGSTYYADSVKGRFTISRDNAKNTVYLQMNSLKTEDTAVYYCATESYGLDYYDEYNYWGQGTQVTVSS,low polyreactivity
